Assay results taken from patent EP4711384A1 (WIO Bioscience Co., Ltd., dated 2026).
Where “and” joins values, the source holds several entries; their conditions need not be identical. Equal values may be shown once. Read-outs that look alike come from different tables or passages of the source.

T1: human IL-18R1 ECD-His (human) (UniProt Q13478)
T1 sequence: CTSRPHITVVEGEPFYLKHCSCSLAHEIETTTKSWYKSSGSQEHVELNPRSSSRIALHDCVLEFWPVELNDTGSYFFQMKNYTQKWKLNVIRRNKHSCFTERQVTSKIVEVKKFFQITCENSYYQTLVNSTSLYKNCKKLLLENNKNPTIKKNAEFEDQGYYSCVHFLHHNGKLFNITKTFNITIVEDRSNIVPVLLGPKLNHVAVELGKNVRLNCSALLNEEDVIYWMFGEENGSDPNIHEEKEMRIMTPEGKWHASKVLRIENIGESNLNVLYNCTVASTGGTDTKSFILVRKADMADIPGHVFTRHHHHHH

T2: human IL-18RAP ECD-His (human) (UniProt O95256)
T2 sequence: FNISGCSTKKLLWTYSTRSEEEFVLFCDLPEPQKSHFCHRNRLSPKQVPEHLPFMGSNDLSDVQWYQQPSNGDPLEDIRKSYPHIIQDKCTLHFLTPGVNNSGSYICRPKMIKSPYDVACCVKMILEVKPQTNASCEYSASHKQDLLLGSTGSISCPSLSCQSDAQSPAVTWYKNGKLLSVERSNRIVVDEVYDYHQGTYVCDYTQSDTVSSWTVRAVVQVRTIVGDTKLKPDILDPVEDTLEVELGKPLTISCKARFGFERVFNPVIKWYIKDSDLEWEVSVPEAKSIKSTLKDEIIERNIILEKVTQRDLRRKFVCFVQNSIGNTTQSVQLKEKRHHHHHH

T3: human IL-18R1 and IL-18RAP on IL-18 Reporter HEK 293 Cells (human, UniProt Q13478 19-541; O95256 20-599)
T3 sequence (looked up) 1: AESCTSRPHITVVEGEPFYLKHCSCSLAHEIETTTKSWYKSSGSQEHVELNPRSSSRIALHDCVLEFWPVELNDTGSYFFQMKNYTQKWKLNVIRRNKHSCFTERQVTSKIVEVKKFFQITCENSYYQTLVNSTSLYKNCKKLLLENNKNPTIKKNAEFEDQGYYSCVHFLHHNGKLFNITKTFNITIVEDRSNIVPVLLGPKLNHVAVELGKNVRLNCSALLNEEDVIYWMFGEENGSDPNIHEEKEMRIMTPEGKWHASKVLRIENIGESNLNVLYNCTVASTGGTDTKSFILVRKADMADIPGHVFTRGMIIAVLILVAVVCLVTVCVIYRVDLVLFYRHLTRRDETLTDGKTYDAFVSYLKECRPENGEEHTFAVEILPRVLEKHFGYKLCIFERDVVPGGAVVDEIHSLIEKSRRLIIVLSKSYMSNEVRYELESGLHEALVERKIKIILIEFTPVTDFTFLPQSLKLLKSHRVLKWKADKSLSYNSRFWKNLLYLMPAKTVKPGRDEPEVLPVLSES
T3 sequence (looked up) 2: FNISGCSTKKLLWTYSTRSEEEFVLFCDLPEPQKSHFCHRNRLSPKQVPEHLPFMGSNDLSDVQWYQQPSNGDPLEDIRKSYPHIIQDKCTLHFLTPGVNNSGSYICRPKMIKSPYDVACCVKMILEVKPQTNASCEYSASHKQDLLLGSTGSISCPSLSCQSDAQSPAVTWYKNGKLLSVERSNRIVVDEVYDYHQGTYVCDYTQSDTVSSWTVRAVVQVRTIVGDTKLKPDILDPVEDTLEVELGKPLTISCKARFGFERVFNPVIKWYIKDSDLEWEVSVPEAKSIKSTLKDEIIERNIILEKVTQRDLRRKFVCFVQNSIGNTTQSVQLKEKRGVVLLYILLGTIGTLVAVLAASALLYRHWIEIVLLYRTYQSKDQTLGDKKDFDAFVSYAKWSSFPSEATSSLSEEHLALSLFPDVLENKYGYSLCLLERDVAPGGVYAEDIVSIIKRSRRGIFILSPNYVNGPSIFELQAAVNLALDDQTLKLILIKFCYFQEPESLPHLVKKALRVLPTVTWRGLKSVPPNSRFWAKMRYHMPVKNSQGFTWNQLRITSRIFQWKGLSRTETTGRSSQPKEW


Columns and labels:
[1] = target: T1, human IL-18R1 ECD-His (human); test: phage ELISA, 4-fold dilution
[2] = target: T2, human IL-18RAP ECD-His (human); test: phage ELISA, 4-fold dilution
[3] = target: T1, human IL-18R1 ECD-His (human); test: phage ELISA, 16-fold dilution
[4] = target: T2, human IL-18RAP ECD-His (human); test: phage ELISA, 16-fold dilution
[5] = target: human IL-18R1 and IL-18RAP on IL-18 Reporter HEK 293 Cells (human) (UniProt Q13478); test: cell-based or functional assay
[6] = target: human IL-18R1 and IL-18RAP on IL-18 Reporter HEK 293 Cells (human) (UniProt Q13478); test: cell-based or functional assay; remark: listed apart in the source
[7] = target: T3, human IL-18R1 and IL-18RAP on IL-18 …; test: cell-based or functional assay
[8] = target: T1, human IL-18R1 ECD-His (human); test: sandwich ELISA, IL-18RAP ECD-hFc detection

Row | Molecule | ELISA OD [1] | ELISA OD [3] | SEAP reporter OD, supernatant 5X [7] | SEAP reporter OD, supernatant 25X [7] | ELISA OD [8] | other results
1 | NC | 0.059 | 0.055 | – | – | – | ELISA OD [2]: 0.06; ELISA OD [4]: 0.068
2 | recombinant human IL-18 (from UniProt Q14116 37-193) (ligand) | – | – | – | – | – | EC50 [5]: 0.121 ng/mL; Top630nm [5]: 2.27; EC50 [6]: 0.117 ng/mL; EC50, SEAP reporter [6]: 0.107 ng/mL; Top630nm [6]: 2.44
3 | Wio-02-03 (R1-C7-GGGGS-Rap-F11) (bispecific antibody) QVQLQESGGGPVQAEGSLRLSCTASGNLYRDPCMGWFRQAPGKDREGVAAMNTGADSTFYARSVKGRFTISHDNAKNTLYLQMNSVKPEDTAMYYCAASRYCTERTWTWRYDYDYWGQGTQVTVSSGSQVQLQESGGGSVQPGGSLRLSCAASGFTYIPAYMGWFRQAPGKERERVASIKTDGSTTYADSVNGRFTIAQDTAKNTLYLQMDSLKPEDTAMYYCAAYQFGAFRVWGQGTQVTVSS | – | – | 1.39 | 0.608 | 1.74 and 1.85 | –
4 | R1-C10 (VHH) VHH: QVQLQESGGGSVQAGETLRLSCTASGSTFDEYDMGWYRQAPGNKCELVSTISTIDGSTYYADSVKGRFTISQDNTKNTVYLQMNSLKPEDTGVYYCEADDRGTWDRGGCWGQGTQVTVSS | 1.33 | 0.977 | – | – | – | –
5 | Rap-A10 (VHH) VHH: QVQLQESGGGLVQAGGSLKLSCAASGYTYGPYCMGWFRQFPGKEREGVAAVGGDGRTWYGNSVKGRFTISQDNAKKTLYLQINALKPEDTAMYYCAADFDRTVCSDDIYDYTYRGQGTQVTVSS | – | – | – | – | – | ELISA OD [2]: 1.83; ELISA OD [4]: 1.57
6 | Wio-02-11 (R1-C10-GGGGS-Rap-C10) (bispecific antibody) QVQLQESGGGSVQAGETLRLSCTASGSTFDEYDMGWYRQAPGNKCELVSTISTIDGSTYYADSVKGRFTISQDNTKNTVYLQMNSLKPEDTGVYYCEADDRGTWDRGGCWGQGTQVTVSSGGGGSQVQLQESGGGSVQPGGSLRLSCAASGFTYIPAYMGWFRQAPGKERERVASISSTDGSTTYADSVKGRFTVSQDTAKNTLYLQMNSLKPEDTAMYYCAAYQFGAFRVWGQGTQVTVSS | – | – | 2.85 | 2.17 | 2.03 and 2.15 | –
7 | Rap-C10 (VHH) VHH: QVQLQESGGGSVQPGGSLRLSCAASGFTYIPAYMGWFRQAPGKERERVASISSTDGSTTYADSVKGRFTVSQDTAKNTLYLQMNSLKPEDTAMYYCAAYQFGAFRVWGQGTQVTVSS | – | – | – | – | – | ELISA OD [2]: 1.85; ELISA OD [4]: 1.58
8 | Wio-02-09 (R1-C10-GGGGS-Rap-F11) (bispecific antibody) QVQLQESGGGSVQAGETLRLSCTASGSTFDEYDMGWYRQAPGNKCELVSTISTIDGSTYYADSVKGRFTISQDNTKNTVYLQMNSLKPEDTGVYYCEADDRGTWDRGGCWGQGTQVTVSSGGGGSQVQLQESGGGSVQPGGSLRLSCAASGFTYIPAYMGWFRQAPGKERERVASIKTDGSTTYADSVNGRFTIAQDTAKNTLYLQMDSLKPEDTAMYYCAAYQFGAFRVWGQGTQVTVSS | – | – | 1.91 | 1.87 | 1.81 and 1.82 | –
9 | Rap-F11 (VHH) VHH: QVQLQESGGGSVQPGGSLRLSCAASGFTYIPAYMGWFRQAPGKERERVASIKTDGSTTYADSVNGRFTIAQDTAKNTLYLQMDSLKPEDTAMYYCAAYQFGAFRVWGQGTQVTVSS | – | – | – | – | – | ELISA OD [2]: 2; ELISA OD [4]: 1.58
10 | Wio-02-44 (Rap-A10-GGGGS-R1-E12) (bispecific antibody) QVQLQESGGGLVQAGGSLKLSCAASGYTYGPYCMGWFRQFPGKEREGVAAVGGDGRTWYGNSVKGRFTISQDNAKKTLYLQINALKPEDTAMYYCAADFDRTVCSDDIYDYTYRGQGTQVTVSSGGGGSQVQLQESGGGSVQAGGSLRLSCVASGTTMSMNYMAWFRQAPGKEREGVASIFRSTHYADSVKGRFTIAEDSAKNTVYLQMNSLKPEDTAVYYCAAGRTKPYLTPLAESQYNYWGQGIQVTVSS | – | – | 1.31 | 1.37 | 1.87 and 1.94 | –
11 | R1-F9 (VHH) VHH: QVQLQESGGGSVQAGETLRLSCTASGFTVHDMGWYRQAPGNECELVSTISSDGSTYYADSVKGRFTISQDNAKNTVYLQMNSLKPEDTAVYYCAADHFTGLQLAECKADFGYWGQGTQVTVSS | 2.04 | 1.63 | – | – | – | –
12 | R1-E12 (VHH) VHH: QVQLQESGGGSVQAGGSLRLSCVASGTTMSMNYMAWFRQAPGKEREGVASIFRSTHYADSVKGRFTIAEDSAKNTVYLQMNSLKPEDTAVYYCAAGRTKPYLTPLAESQYNYWGQGIQVTVSS | 2.76 | 2.71 | – | – | – | –
13 | R1-A12 (VHH) VHH: QVQLQESGGGPVQAGGSLRLSCSASTTAYDNACMGWFRQAPGKEREGVASIHLRDRTYYADSVKGRFTLSRDGASKTLYLQMNSLKPEDSGTYYCASSNICNGLNLQGNTYWGQGTQVTVSS | 2.71 | 2.64 | – | – | – | –

Second part, led by results:

Row | ELISA OD [1] | ELISA OD [3] | SEAP reporter OD, supernatant 5X [7] | SEAP reporter OD, supernatant 25X [7] | ELISA OD [8] | Molecule | other results
14 | – | – | 1.59 | 1.18 | 2.16 and 2.29 | Wio-02-30 (Rap-C10-GGGGS-R1-C10) (bispecific antibody) QVQLQESGGGSVQPGGSLRLSCAASGFTYIPAYMGWFRQAPGKERERVASISSTDGSTTYADSVKGRFTVSQDTAKNTLYLQMNSLKPEDTAMYYCAAYQFGAFRVWGQGTQVTVSSGGGGSQVQLQESGGGSVQAGETLRLSCTASGSTFDEYDMGWYRQAPGNKCELVSTISTIDGSTYYADSVKGRFTISQDNTKNTVYLQMNSLKPEDTGVYYCEADDRGTWDRGGCWGQGTQVTVSS | –
15 | – | – | 1.66 | 1.77 | 2.17 and 2.18 | Wio-02-31 (Rap-C10-GGGGS-R1-F9) (bispecific antibody) QVQLQESGGGSVQPGGSLRLSCAASGFTYIPAYMGWFRQAPGKERERVASISSTDGSTTYADSVKGRFTVSQDTAKNTLYLQMNSLKPEDTAMYYCAAYQFGAFRVWGQGTQVTVSSGGGGSQVQLQESGGGSVQAGETLRLSCTASGFTVHDMGWYRQAPGNECELVSTISSDGSTYYADSVKGRFTISQDNAKNTVYLQMNSLKPEDTAVYYCAADHFTGLQLAECKADFGYWGQGTQVTVSS | –
16 | – | – | 1.97 | 1.86 | 1.88 and 1.9 | Wio-02-05 (R1-C7-GGGGS-Rap-C10) (bispecific antibody) QVQLQESGGGPVQAEGSLRLSCTASGNLYRDPCMGWFRQAPGKDREGVAAMNTGADSTFYARSVKGRFTISHDNAKNTLYLQMNSVKPEDTAMYYCAASRYCTERTWTWRYDYDYWGQGTQVTVSSGGGGSQVQLQESGGGSVQPGGSLRLSCAASGFTYIPAYMGWFRQAPGKERERVASISSTDGSTTYADSVKGRFTVSQDTAKNTLYLQMNSLKPEDTAMYYCAAYQFGAFRVWGQGTQVTVSS | –
17 | 1 | 0.819 | – | – | – | R1-C7 (VHH) VHH: QVQLQESGGGPVQAEGSLRLSCTASGNLYRDPCMGWFRQAPGKDREGVAAMNTGADSTFYARSVKGRFTISHDNAKNTLYLQMNSVKPEDTAMYYCAASRYCTERTWTWRYDYDYWGQGTQVTVSS | –
